According to patent US20170298096A1 (CANIMGUIDE THERAPEUTICS, published 2017):

T1: His-tagged P3028 peptide (PGE73) (human)
T1 construct: albumin-derived peptide, in solution at 0.5 ug/mL; not shown: His-tag
T1 peptide: VFDEFKPLVEEPQNLIK

T2: His-tagged P3028 peptide (PGE73) (human)
T2 construct: also called His-tag-P3028; not shown: His-tag
T2 peptide: VFDEFKPLVEEPQNLIK


Biological target: T1, His-tagged P3028 peptide (PGE73)
Assay: PEPSCAN ELISA, peptide on card
Experimental: (§1) After washing, the peroxidase substrate 2,2′-azine-di-3-ethylbenzthiazoline sulfonate (ABTS) and 2 μL of 3% H2O2 were added. The binding capacity of the mAb was measured as a color development at 405 nm (optical density, OD405). The color development was quantified with a charge-coupled device (CCD)—camera and an image processing system.
(§2) The OD405-values obtained by a CCD-camera was considered as raw data values (“rampo values,” “rampo units,” or “rampo scores”). […] First the CCD-camera made a picture of the card before peroxidase coloring and then again a picture after the peroxidase coloring. […] These values were copied into an excel file and labeled as a raw data file. One follow-up manipulation was allowed. Sometimes a well can contain an air-bubble resulting in a false-positive value. If manual inspection of the cards detect an air-bubble the value are set to 0 for that well.

Point of comparison: KKLDTFFVKVSLFTER [SEQ ID NO: 343 KKLDTFFVKVSLFTER], “RAMPO Score” value 658. Against it:
- KKLDTFFVKQSLFTER [SEQ ID NO: 339 KKLDTFFVKQSLFTER] — lower, 470
- KKLDTFFVKLSLFWER [SEQ ID NO: 386 KKLDTFFVKLSLFWER] — lower, 374
- KKLDTFFVKLSLMTER (also called 30677) [SEQ ID NO: 367 KKLDTFFVKLSLMTER] — higher, 1190
- KKLDTFFVKLSLFTEK [SEQ ID NO: 389 KKLDTFFVKLSLFTEK] — lower, 291
- KKLDTFFVKLSLPTER [SEQ ID NO: 369 KKLDTFFVKLSLPTER] — higher, 696
- KKLDTFFVKLSLLTER [SEQ ID NO: 366 KKLDTFFVKLSLLTER] — lower, 448
- KKLDTFFVKLSRFTER [SEQ ID NO: 356 KKLDTFFVKLSRFTER] — lower, 483
- KKLDTFFVKLSLFIER [SEQ ID NO: 379 KKLDTFFVKLSLFIER] — lower, 375
- KKLDTFFVKLTLFTER [SEQ ID NO: 349 KKLDTFFVKLTLFTER] — lower, 520
- KKLDTFFVKLHLFTER [SEQ ID NO: 345 KKLDTFFVKLHLFTER] — lower, 535
- KKLDTFFVKLSLFTEF [SEQ ID NO: 388 KKLDTFFVKLSLFTEF] — lower, 297
- KKLDTFFVKSSLFTER [SEQ ID NO: 341 KKLDTFFVKSSLFTER] — lower, 351
- KKLDTFFVKLSHFTER [SEQ ID NO: 351 KKLDTFFVKLSHFTER] — lower, 460
- KKLDTFFVKLSLFTEY [SEQ ID NO: 393 KKLDTFFVKLSLFTEY] — lower, 311
- KKLDTFFVKYSLFTER [SEQ ID NO: 344 KKLDTFFVKYSLFTER] — lower, 382
- KKLDTFFVKLSLFLER [SEQ ID NO: 380 KKLDTFFVKLSLFLER] — lower, 360
- KKLDTFFVKLSTFTER [SEQ ID NO: 358 KKLDTFFVKLSTFTER] — lower, 437
- KKLDTFFVKLSAFTER [SEQ ID NO: 350 KKLDTFFVKLSAFTER] — lower, 462
- KKLDTFFVKLNLFTER [SEQ ID NO: 347 KKLDTFFVKLNLFTER] — lower, 451
- KKLDTFFVKLSLQTER [SEQ ID NO: 370 KKLDTFFVKLSLQTER] — higher, 1140
- KKLDTFFVKLSVFTER [SEQ ID NO: 359 KKLDTFFVKLSVFTER] — lower, 545
- KKLDTFFVKLMLFTER [SEQ ID NO: 346 KKLDTFFVKLMLFTER] — higher, 744
- KKLDTFFVKLSLCTER [SEQ ID NO: 362 KKLDTFFVKLSLCTER] — lower, 400
- KKLDTFFVKLSLITER [SEQ ID NO: 365 KKLDTFFVKLSLITER] — lower, 468
- KKLDTFFVKLSLFVER [SEQ ID NO: 385 KKLDTFFVKLSLFVER] — lower, 380
- KKLDTFFVKLSLFNER [SEQ ID NO: 382 KKLDTFFVKLSLFNER] — lower, 599
- KKLDTFFVKLSLVTER [SEQ ID NO: 374 KKLDTFFVKLSLVTER] — lower, 446
- KKLDTFFVKLSLWTER [SEQ ID NO: 375 KKLDTFFVKLSLWTER] — lower, 430
- KKLDTFFVKRSLFTER [SEQ ID NO: 340 KKLDTFFVKRSLFTER] — lower, 439
- KKLDTFFVKLSLFSER [SEQ ID NO: 384 KKLDTFFVKLSLFSER] — lower, 369
- KKLDTFFVKTSLFTER [SEQ ID NO: 342 KKLDTFFVKTSLFTER] — lower, 399
- KKLDTFFVKLSLSTER [SEQ ID NO: 372 KKLDTFFVKLSLSTER] — lower, 635
- KKLDTFFVKLSLTTER [SEQ ID NO: 373 KKLDTFFVKLSLTTER] — lower, 494
- KKLDTFFVKLSLFPER [SEQ ID NO: 383 KKLDTFFVKLSLFPER] — lower, 551
- KKLDTFFVKLSLATER [SEQ ID NO: 361 KKLDTFFVKLSLATER] — lower, 525
- KKLDTFFVKLQLFTER (also called 30678) [SEQ ID NO: 348 KKLDTFFVKLQLFTER] — higher, 768
- KKLDTFFVKLSNFTER [SEQ ID NO: 354 KKLDTFFVKLSNFTER] — lower, 462
- KKLDTFFVKLSIFTER [SEQ ID NO: 352 KKLDTFFVKLSIFTER] — lower, 456
- KKLDTFFVKLSLRTER [SEQ ID NO: 371 KKLDTFFVKLSLRTER] — lower, 502
- KKLDTFFVKLSLGTER [SEQ ID NO: 363 KKLDTFFVKLSLGTER] — lower, 531
- KKLDTFFVKLSMFTER [SEQ ID NO: 353 KKLDTFFVKLSMFTER] — lower, 499
- KKLDTFFVKLSLFHER [SEQ ID NO: 378 KKLDTFFVKLSLFHER] — lower, 463
- KKLDTFFVKLSLFTDR [SEQ ID NO: 387 KKLDTFFVKLSLFTDR] — lower, 404
- KKLDTFFVKLSSFTER [SEQ ID NO: 357 KKLDTFFVKLSSFTER] — lower, 478
- KKLDTFFVKLSLFTET [SEQ ID NO: 392 KKLDTFFVKLSLFTET] — lower, 292
- KKLDTFFVKLSLFGER [SEQ ID NO: 377 KKLDTFFVKLSLFGER] — lower, 343
- KKLDTFFVKLSLNTER [SEQ ID NO: 368 KKLDTFFVKLSLNTER] — higher, 862
- KKLDTFFVKLSLFTEN [SEQ ID NO: 390 KKLDTFFVKLSLFTEN] — lower, 311
- KKLDTFFVKLSLHTER [SEQ ID NO: 364 KKLDTFFVKLSLHTER] — higher, 1050
- KKLDTFFVKLSLFMER [SEQ ID NO: 381 KKLDTFFVKLSLFMER] — lower, 501
- KKLDTFFVKLSLFFER [SEQ ID NO: 376 KKLDTFFVKLSLFFER] — lower, 348
- KKLDTFFVKLSWFTER [SEQ ID NO: 360 KKLDTFFVKLSWFTER] — lower, 409
- KKLDTFFVKLSQFTER [SEQ ID NO: 355 KKLDTFFVKLSQFTER] — lower, 651

Biological target: T2, His-tagged P3028 peptide (PGE73)
Assay: PEPSCAN ELISA; peptide on card, His-tagged P3028 in solution;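 also: bound protein detected by peroxidase colour with ABTS substrate, imaged on the peptide card by CCD camera at 405 nm, rampo units being raw OD405 readings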
Experimental: as §1, §2

Point of comparison: KKLDTFFVYLSLFTER (P28R variant on PEPSCAN card) [SEQ ID NO: 552], “RAMPO Score” value 198 rampo units. Against it:
- KKLDTFFVKLSLFTEP (P28R variant on PEPSCAN card) [SEQ ID NO: 533] — higher, 234 rampo units
- KKLDTFFVKLSLFTEI (P28R variant on PEPSCAN card) [SEQ ID NO: 558] — lower, 176 rampo units
- KKLDTFFVKLSLFTES (P28R variant on PEPSCAN card) [SEQ ID NO: 557] — lower, 184 rampo units
- KKLDTFFVKLSLFTEC (P28R variant on PEPSCAN card) [SEQ ID NO: 559] — lower, 175 rampo units
- KKLDTFFVKLSLFTEW (P28R variant on PEPSCAN card) [SEQ ID NO: 551] — higher, 202 rampo units
- KKLDTFFVKLSLFTEQ (P28R variant on PEPSCAN card) [SEQ ID NO: 573] — lower, 133 rampo units
- KKLDTFFVKLSLFTEE (P28R variant on PEPSCAN card) [SEQ ID NO: 577] — lower, 107 rampo units
- KKLDTFFVKLSLFTEA (P28R variant on PEPSCAN card) [SEQ ID NO: 538] — higher, 226 rampo units
- KKLDTFFVKLSLFTEL (P28R variant on PEPSCAN card) [SEQ ID NO: 544] — higher, 217 rampo units
- KKLDTFFVKLSLFTED (P28R variant on PEPSCAN card) [SEQ ID NO: 572] — lower, 133 rampo units
- KKLDTFFVKLSLFTEG (P28R variant on PEPSCAN card) [SEQ ID NO: 543] — higher, 218 rampo units
- KKLDTFFVGLSLFTER (P28R variant on PEPSCAN card) [SEQ ID NO: 97] — lower, 188 rampo units
- KKLDTFFVGLSLFTER (P28R variant on PEPSCAN card) [SEQ ID NO: 98] — lower, 188 rampo units
- KKLDTFFVCLSLFTER (P28R variant on PEPSCAN card) [SEQ ID NO: 541] — higher, 220 rampo units
- KKLDTFFVPLSLFTER (P28R variant on PEPSCAN card) [SEQ ID NO: 534] — higher, 233 rampo units
